Reference: the supplement of paper PMC6757056
± gives the standard deviation of the averaged measurements.

B1: library; a variant is named by its letters at N, in order (parent)
chain: GCUGUCACCGGUGUAUUACCCUAGUGGUCGACCGGUCUGAUGAGUCUNNNNNNAGACGAAACAGC

Assays:
hypoxanthine [1] = variants of: B1; experiment: normalized RNA/DNA level with ligand (relative to sTRSVctl = 100) (log10 (% of sTRSVctl)); ligand: hypoxanthine (xanthine aptamer); higher = less ribozyme self-cleavage, higher mRNA level; details: ligand concentration (+) RNA-Seq: 5 mM, HEK293T, reporter: mCherry (pCS4076), ligand present: yes
Procedure, shortened: (§1)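 HEK293T cells were transfected with library plasmids carrying ribozyme switches linked to an mCherry reporter, or an eGFP reporter in some ligand experiments, at 4 µg per well of a 6-well plate, with any ligand added 1 h beforehand. After 72 h, total RNA was extracted with EDTA, reverse-transcribed, amplified, barcoded and sequenced. RNA level was defined as RNA reads over DNA reads, normalized to a spiked-in non-cleaving sequence or to the top-ranked sequences. That value was multiplied by 100 and converted to log10, the top set was 25 sequences, and only sequences with ≥100 DNA reads were retained.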

hypoxanthine [2] = variants of: B1; experiment: normalized RNA/DNA level without ligand (relative to sTRSVctl = 100) (log10 (% of sTRSVctl)); ligand: hypoxanthine (xanthine aptamer); higher = less ribozyme self-cleavage, higher mRNA level; details: HEK293T, reporter: mCherry (pCS4076), ligand present: no
Procedure, shortened: as §1

| Variant | normalized RNA/DNA level with ligand (log10) (hypoxanthine [1]) | normalized RNA/DNA level without ligand (log10) (hypoxanthine [2]) |
| --- | --- | --- |
| GUACUA | 1.937 ± 0.014 | 1.86 ± 0.037 |
| GUACUC | 1.93 ± 0.053 | 1.92 ± 0.032 |
| GUACUU | 1.9422 ± 0.0012 | 1.889 ± 0.006 |
| GUACUG | 1.883 ± 0.0029 | 1.53 ± 0.056 |
| GUAGGA | 1.892 ± 0.002 | 1.66 ± 0.033 |
| CUACGG | 1.93 ± 0.047 | 1.98 ± 0.071 |
| CUACGU | 1.98 ± 0.067 | 1.9 ± 0.027 |
| CUACGA | 1.97 ± 0.034 | 1.87 ± 0.034 |
| CUACGC | 1.961 ± 0.011 | 1.913 ± 0.007 |
| UGUGCA | 1.92 ± 0.031 | 1.86 ± 0.022 |
| UGUGCC | 1.984 ± 0.0044 | 1.946 ± 0.019 |
| UGUGCU | 1.92 ± 0.0065 | 1.93 ± 0.057 |
| CGUUUU | 1.92 ± 0.073 | 1.833 ± 0.014 |
| CGUUUG | 1.96 ± 0.067 | 1.864 ± 0.0052 |
| CGUUUA | 1.89 ± 0.032 | 1.68 ± 0.013 |
| AUAGCC | 1.936 ± 0.0032 | 1.82 ± 0.028 |
| AUAGCU | 1.935 ± 0.018 | 1.83 ± 0.005 |
| UUAAAC | 1.915 ± 0.008 | 1.791 ± 0.01 |
| GUAAGU | 1.94 ± 0.039 | 1.79 ± 0.019 |
| UUAUAU | 1.93 ± 0.027 | 1.85 ± 0.019 |
| UUAUAG | 1.89 ± 0.019 | 1.67 ± 0.04 |
| UUAUAA | 1.92 ± 0.0059 | 1.76 ± 0.041 |
| GUAGAC | 1.89 ± 0.041 | 1.69 ± 0.025 |
| GUAGAU | 1.87 ± 0.092 | 1.758 ± 0.00084 |

| Variant | normalized RNA/DNA level with ligand (log10) (hypoxanthine [1]) | normalized RNA/DNA level without ligand (log10) (hypoxanthine [2]) |
| --- | --- | --- |
| GGUUAU | 1.94 ± 0.052 | 1.79 ± 0.03 |
| GGUUAA | 1.93 ± 0.062 | 1.77 ± 0.072 |
| AUACGU | 1.91 ± 0.032 | 1.84 ± 0.042 |
| AUACGA | 1.868 ± 0.018 | 1.7 ± 0.025 |
| GUAACU | 1.94 ± 0.03 | 1.878 ± 0.005 |
| GUAACA | 1.89 ± 0.0062 | 1.8412 ± 0.00038 |
| GUAACC | 1.9577 ± 0.00079 | 1.88 ± 0.089 |
| AUAAAA | 1.88 ± 0.031 | 1.8 ± 0.04 |
| CGUUCA | 1.974 ± 0.012 | 1.758 ± 0.014 |
| CGUUCG | 1.9 ± 0.025 | 1.84 ± 0.052 |
| CGUUCC | 1.98 ± 0.032 | 1.913 ± 0.017 |
| CGUUCU | 1.97 ± 0.046 | 1.843 ± 0.012 |
| CGUGGU | 1.95 ± 0.021 | 1.86 ± 0.026 |
| CGUGGC | 1.901 ± 0.0033 | 1.883 ± 0.013 |
| CUAGGU | 1.94 ± 0.028 | 1.88 ± 0.026 |
| CUAGGC | 1.94 ± 0.029 | 1.86 ± 0.086 |
| UUAAUU | 1.94 ± 0.041 | 1.84 ± 0.041 |
| UUAAUG | 1.886 ± 0.0055 | 1.737 ± 0.0081 |
| UUAAUC | 1.95 ± 0.017 | 1.96 ± 0.058 |
| UGUUAC | 1.912 ± 0.0067 | 1.836 ± 0.0054 |
| UGUUAG | 1.884 ± 0.0019 | 1.69 ± 0.038 |
| UGUUAA | 1.94 ± 0.029 | 1.841 ± 0.014 |
| GUACGC | 1.95 ± 0.033 | 1.84 ± 0.062 |
| GUACGA | 1.91 ± 0.04 | 1.686 ± 0.0047 |

| Variant | normalized RNA/DNA level with ligand (log10) (hypoxanthine [1]) | normalized RNA/DNA level without ligand (log10) (hypoxanthine [2]) |
| --- | --- | --- |
| CUACCU | 1.96 ± 0.092 | 1.9389 ± 0.0018 |
| CUACCG | 1.95 ± 0.025 | 1.8 ± 0.026 |
| CUACCA | 1.93 ± 0.053 | 1.82 ± 0.02 |
| CUACCC | 1.935 ± 0.014 | 1.88 ± 0.06 |
| GUAUAA | 1.87 ± 0.052 | 1.78 ± 0.02 |
| UGUUCU | 1.93 ± 0.058 | 1.97 ± 0.051 |
| UGUUCG | 1.94 ± 0.074 | 1.8368 ± 0.00097 |
| UGUUCC | 2.03 ± 0.011 | 1.93 ± 0.022 |
| UGUUCA | 1.96 ± 0.093 | 1.87 ± 0.029 |
| AUAUAU | 1.9 ± 0.028 | 1.79 ± 0.045 |
| CUAAGA | 1.947 ± 0.013 | 1.838 ± 0.011 |
| CUAAGG | 1.91 ± 0.032 | 1.75 ± 0.046 |
| CGUGCG | 1.95 ± 0.071 | 1.9 ± 0.027 |
| CGUGCC | 1.97 ± 0.039 | 1.922 ± 0.0033 |
| GGUGUC | 1.916 ± 0.0061 | 1.846 ± 0.018 |
| GGUGUU | 1.97 ± 0.051 | 1.88 ± 0.03 |
| UGUUGG | 1.91 ± 0.058 | 1.53 ± 0.04 |
| UGUUGC | 1.943 ± 0.015 | 1.87 ± 0.051 |
| UGUUGA | 1.9 ± 0.021 | 1.674 ± 0.0081 |
| AGUGCG | 1.84 ± 0.02 | 1.365 ± 0.0051 |
| AGUGCC | 1.94 ± 0.033 | 1.838 ± 0.0064 |
| AGUGCU | 1.998 ± 0.013 | 1.85 ± 0.023 |
| AGUGCA | 1.92 ± 0.051 | 1.78 ± 0.03 |
| CUAUAU | 1.951 ± 0.014 | 1.81 ± 0.038 |

| Variant | normalized RNA/DNA level with ligand (log10) (hypoxanthine [1]) | normalized RNA/DNA level without ligand (log10) (hypoxanthine [2]) |
| --- | --- | --- |
| CUAUAC | 1.954 ± 0.014 | 1.835 ± 0.0098 |
| CUAUAA | 1.9 ± 0.037 | 1.8 ± 0.0052 |
| CUAUAG | 1.93 ± 0.019 | 1.69 ± 0.068 |
| UUAGUA | 1.939 ± 0.017 | 1.81 ± 0.039 |
| UUAGUG | 1.89 ± 0.048 | 1.67 ± 0.043 |
| UUAGUU | 1.952 ± 0.0013 | 1.85 ± 0.038 |
| UUAGUC | 1.98 ± 0.0064 | 1.976 ± 0.015 |
| UGUUUC | 1.98 ± 0.071 | 2.02 ± 0.047 |
| UGUUUU | 1.97 ± 0.069 | 1.888 ± 0.011 |
| UGUUUA | 1.942 ± 0.0063 | 1.88 ± 0.035 |
| AUACCA | 1.91 ± 0.02 | 1.88 ± 0.031 |
| AUACCU | 1.985 ± 0.013 | 1.9 ± 0.039 |
| GGUCCG | 2.01 ± 0.061 | 1.829 ± 0.018 |
| GGUCCU | 1.941 ± 0.017 | 1.96 ± 0.061 |
| GGUGAA | 1.9 ± 0.061 | 1.65 ± 0.024 |
| CUAGAG | 1.88 ± 0.018 | 1.64 ± 0.023 |
| GUAGUU | 1.96 ± 0.041 | 1.87 ± 0.046 |
| GUAGUC | 1.976 ± 0.012 | 1.81 ± 0.05 |
| GGUUUC | 1.946 ± 0.011 | 1.916 ± 0.0058 |
| UGUGUC | 1.98 ± 0.041 | 1.958 ± 0.0027 |
| UGUGUU | 1.95 ± 0.071 | 1.887 ± 0.0068 |
| UGUGUA | 1.92 ± 0.032 | 1.79 ± 0.058 |
| GUAGCA | 1.8839 ± 9.6e-05 | 1.8 ± 0.023 |
| GUAGCG | 1.87 ± 0.02 | 1.535 ± 0.0049 |

| Variant | normalized RNA/DNA level with ligand (log10) (hypoxanthine [1]) | normalized RNA/DNA level without ligand (log10) (hypoxanthine [2]) |
| --- | --- | --- |
| GGUCUU | 1.933 ± 0.018 | 1.94 ± 0.025 |
| GGUCUC | 2.006 ± 0.016 | 1.96 ± 0.037 |
| GGUCUG | 1.87 ± 0.06 | 1.71 ± 0.029 |
| UUAAGU | 1.936 ± 0.0026 | 1.847 ± 0.0087 |
| UUAAGC | 1.94 ± 0.023 | 1.837 ± 0.0055 |
| AUAACC | 1.943 ± 0.0094 | 1.8816 ± 0.0015 |
| AUAACG | 1.87 ± 0.062 | 1.43 ± 0.11 |
| AUAACU | 1.93 ± 0.034 | 1.88 ± 0.027 |
| AUACAU | 1.91 ± 0.03 | 1.794 ± 0.017 |
| CUAACC | 1.91 ± 0.051 | 1.83 ± 0.038 |
| CUAACU | 1.92 ± 0.033 | 1.869 ± 0.0023 |
| CUAACG | 1.923 ± 0.017 | 1.88 ± 0.033 |
| CUAACA | 1.88 ± 0.069 | 1.84 ± 0.031 |
| CUACUU | 1.99 ± 0.028 | 1.83 ± 0.026 |
| CUACUG | 1.942 ± 0.0056 | 1.925 ± 0.0027 |
| CUACUC | 2.039 ± 0.013 | 1.95 ± 0.025 |
| AUAGGC | 1.91 ± 0.025 | 1.776 ± 0.0031 |
| AUAGGU | 1.908 ± 0.016 | 1.587 ± 0.015 |
| GUACCU | 1.985 ± 0.016 | 1.9131 ± 0.00047 |
| GUACCC | 1.9 ± 0.045 | 1.8666 ± 0.0018 |
